# From US20180344844A1 (SCHOLAR ROCK, published 2018)
# Read-outs that look alike come from different tables or passages of the source.
# T1: BMP 9 (UniProt Q9UK05 320-429, limits assumed)
# T1 construct: mature
# T1 sequence (looked up): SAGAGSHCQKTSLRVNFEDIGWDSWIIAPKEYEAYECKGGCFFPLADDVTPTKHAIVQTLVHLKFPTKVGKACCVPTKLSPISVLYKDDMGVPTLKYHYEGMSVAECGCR
# T2: Mature Activin A (UniProt P08476 311-426)
# T2 construct: mature; also called Activin A growth factor
# T2 sequence (looked up): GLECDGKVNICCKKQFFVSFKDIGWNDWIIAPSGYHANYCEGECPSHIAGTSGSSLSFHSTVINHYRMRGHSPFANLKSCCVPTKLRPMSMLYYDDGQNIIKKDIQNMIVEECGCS
# T3: BMP10 (UniProt O95393 317-424, limits assumed)
# T3 construct: mature
# T3 sequence (looked up): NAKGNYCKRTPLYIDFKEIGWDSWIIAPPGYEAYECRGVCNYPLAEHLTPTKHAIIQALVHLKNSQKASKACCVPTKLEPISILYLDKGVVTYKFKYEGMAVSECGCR
# T4: Pro Activin A (human, UniProt P08476 21-426)
# T4 construct: domain: pro form (prodomain plus growth factor domain)
# T4 sequence (looked up): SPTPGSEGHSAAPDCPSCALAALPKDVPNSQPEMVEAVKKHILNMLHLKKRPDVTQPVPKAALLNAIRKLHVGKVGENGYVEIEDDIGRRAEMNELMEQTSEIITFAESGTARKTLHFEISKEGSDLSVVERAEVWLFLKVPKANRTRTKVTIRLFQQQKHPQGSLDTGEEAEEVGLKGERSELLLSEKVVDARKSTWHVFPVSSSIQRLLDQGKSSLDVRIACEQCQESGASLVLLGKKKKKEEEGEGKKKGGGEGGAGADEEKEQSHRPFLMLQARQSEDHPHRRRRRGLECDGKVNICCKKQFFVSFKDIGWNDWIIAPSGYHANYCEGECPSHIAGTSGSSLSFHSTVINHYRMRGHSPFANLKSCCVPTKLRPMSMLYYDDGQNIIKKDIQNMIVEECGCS
# Experiments:
# [1] = molecular target: T5, proGDF8 (human) (human, UniProt O14793 24-375); experiment: cell-based or functional assay
# [2] = molecular target: T6, proGDF8 (mouse) (mouse, UniProt O08689 25-376); experiment: cell-based or functional assay
# [3] = molecular target: T1, BMP 9; experiment: ForteBio Octet BLI; antigen on the tip (direct amine coupling), Ab1 in solution
# [4] = molecular target: T2, Mature Activin A; experiment: as above
# [5] = molecular target: T3, BMP10; experiment: as above
# [6] = molecular target: T7, Mature GDF11 (UniProt O95390 299-407, limits assumed); experiment: as above
# T7 construct: mature; also called GDF11 mature growth factor
# [7] = molecular target: T8, Mature TGFB1 (UniProt P01137 279-390); experiment: as above
# T8 construct: mature; also called mature TGFβ1
# [8] = molecular target: T9, Mature GDF8 (UniProt O14793 267-375, limits assumed); experiment: as above
# T9 construct: mature; Amine-coupled to the biosensor tips; also called mature myostatin; mature growth factor of Myostatin
# [9] = molecular target: T10, proGDF11 (human) (human, UniProt O95390 25-407); experiment: ForteBio BLI; biotinylated proGDF11 on streptavidin tip, 30 µg/mL antibody, response after 5 minutes of association relative to proGDF8
# T10 construct: domain: proGDF11 (prodomain plus growth factor domain)
# Method: In this assay, biotinylated proGDF11 or biotinylated proMyostatin was immobilized on a ForteBio BLI streptavidin-coated sensor tip, which was applied to wells containing 30 μg/mL of antibody. Interactions of the analyte with the protein immobilized on the chip are measured by the magnitude of the response of the biosensor chip. The biosensor response after 5 minutes of association (a saturating signal for proGDF8) was compared between the two antigens, and expressed as the percent response for GDF8 binding.
# [10] = molecular target: T4, Pro Activin A; experiment: ForteBio Octet BLI; biotinylated antigen on streptavidin tip, Ab1 in solution
# [11] = molecular target: T10, proGDF11 (human); experiment: as above
# [12] = molecular target: T6, proGDF8 (mouse); experiment: cell-based or functional assay; remark: listed apart in the source
# [13] = molecular target: T4, Pro Activin A; experiment: ForteBio Octet BLI; antigen on biosensor, antibody in solution
# Method: (§1) Binding affinities of antibody candidates were determined using the FortéBio Octet QKe dip and read label free assay system utilizing bio-layer interferometry. Antigens were immobilized to biosensors (streptavidin-coated biosensors for proGDF8, proGDF11 and proActivin; direct amine coupling for all others) in each experiment and the antibodies/constructs were presented in solution at high concentration (50 μg/mL) to measure binding interactions.
# (§2) Binding affinities of antibodies were determined using the FortéBio Octet QKe dip and read label free assay system utilizing bio-layer interferometry. Human proGDF8, latent GDF8, proGDF11 and proActivin were biotinylated and immobilized to streptavidin-coated biosensors (FortéBio). Mature growth factors were immobilized via direct amine coupling to amine reactive tips according to manufacturer's instructions (FortéBio). In each experiment, the antibodies/constructs were presented in solution at a single high concentration (50 μg/mL) to measure binding interactions.
# [14] = molecular target: T1, BMP 9; experiment: as above
# Method: as §1, §2
# [15] = molecular target: T2, Mature Activin A; experiment: as above
# Method: as §1, §2
# [16] = molecular target: T3, BMP10; experiment: as above
# Method: as §1, §2
# [17] = molecular target: T7, Mature GDF11; experiment: as above
# Method: as §1, §2
# [18] = molecular target: T8, Mature TGFB1; experiment: as above
# Method: as §1, §2
# [19] = molecular target: T9, Mature GDF8; experiment: as above
# Method: as §1, §2
# [20] = molecular target: T6, proGDF8 (mouse); experiment: cell-based or functional assay; remark: listed apart in the source
# [21] = molecular target: T5, proGDF8 (human); experiment: Octet binding kinetics to pro- and latent-Myostatin, compared with parental Ab1
# [22] = molecular target: T11, latent GDF8 (human) (human, UniProt O14793 24-266; O14793 267-375); experiment: as above
# T11 construct: proGDF8 cleaved by a proprotein convertase; the split after 243 is inferred from that; also called human latent Myostatin; Human latent GDF8
binder,measurement,setting,value
"Ab10 (antibody, V domains shown) VH: EVQLVQSGGGVVQSGRSLRLSCVASGFSFSNYGMHWVRQAPGKGLEWLAFIWYDGSNKWYADSVKGRFTISRDNSKNALYLQMNSLRAEDTAVYYCARDRYSSSWGGGFDYWGQGTVLTVSS VL: NFMLTQPHSVSESPGRTVTIPCSGRGGSIASDSVQWYQQRPGSAPTTIIYEDNQRPSGVPDRFSGSVDSSSNSASLTISGLRTEDEADYYCQSYDASSLWVFGGKTKLTVLG",Human proGDF8 IC50 (µM) Reporter assay,[1],0.772 µM
"Ab7 (antibody, V domains shown) VH: QVQLQQSGAEVKKPGASVKVSCKASGYTFTSYYMHWVRQAPGQGLEWMGIINPSGGSTSYAQKFQGRVTMTRDTSTSTVYMELSSLRSEDTAVYYCARESLIRFLEDPQQGGMDVWGQGTTVTVSS VL: QSALTQPASVSGSPGQSLTISCTGTSSDIGGYNYVSWYQQHPGKAPKLIIYDVTDRPSGVSGRFSGSKSGNTASLTISGLQTEDEAEYFCNSWTRSNNYIFGGGTKLTVLG",Murine proGDF8 IC50 (µM) Reporter assay,[2],1.68 µM
same,Human proGDF8 IC50 (µM) Reporter assay,[1],0.983 µM
"Ab8 (antibody, V domains shown) VH: QIQLVQSGAEVKKPGASVKVSCKASGYTFTSYGISWVRQAPGQGLEWMGWISAYNGNTNYAQKLQGRVTMTTDTSTSTAYMELSSLRSEDTAVYYCARVGFYDYVWGSYPYDAFDIWGQGTMVTVSS VL: EIVMTQSPGTLSLSPGERATLSCRASQSVSSNYLAWYQQKPGQAPRLLIYDASNRATGIPARFSGSGSGTDFTLTISSLEPEDFALYYCQQYGTSPLTFGGGTKLEIKR",Murine proGDF8 IC50 (µM) Reporter assay,[2],139 µM
same,Human proGDF8 IC50 (µM) Reporter assay,[1],6.04 µM
"Ab1 parental antibody, IgG4 (S228P), lambda (antibody, V domains shown, also called parental Ab1 IgG4; 24H4 (WT); copies: 2 + 2) VH: QIQLVQSGGGVVQPGRSLRLSCAASGFTFSSYGMHWVRQAPGKGLEWVAVISYDGSNKYYADSVKGRFTISRDNSKNTLYLQMNSLRAEDTAVYYCARDLLVRFLEWSHYYGMDVWGQGTTVTVSS VL: not shown",binding result,[3],no binding (tested: 50 ug/mL)
same,binding result,[4],no binding (tested: 50 ug/mL)
same,binding result,[5],no binding (tested: 50 ug/mL)
same,binding result,[6],no binding (tested: 50 ug/mL)
same,binding result,[7],no binding (tested: 50 ug/mL)
same,binding result,[8],no binding (tested: 50 ug/mL)
same,"GDF11 response, expressed as a percentage of GDF8 response",[9],1.33%
same,binding result,[10],no binding (tested: 50 ug/mL)
same,binding result,[11],no binding (tested: 50 ug/mL)
same,Activity Assay - 293T cells EC50,[12],839 nM
"Ab4 (Ab3 with germline framework residues), IgG4 (S228P), lambda (antibody, V domains shown, human IgG4/lambda framework with S228P; also called Ab4 germline) VH: QVQLVESGGGVVQPGRSLRLSCAASGFAFSSYGMHWVRQAPGKGLEWVAVISYDGSIKYYADSVKGRFTISRDNSKNTLYLQMNSLRAEDTAVYYCARDLLVRFLEWSHKYGMDVWGQGTTVTVSS VL: not shown",binding result,[13],no binding (tested: 50 µg/mL)
same,binding result,[14],no binding (tested: 50 µg/mL)
same,binding result,[15],no binding (tested: 50 µg/mL)
same,binding result,[16],no binding (tested: 50 µg/mL)
same,binding result,[17],no binding (tested: 50 µg/mL)
same,binding result,[18],no binding (tested: 50 µg/mL)
same,binding result,[19],no binding (tested: 50 µg/mL)
same,Activity Assay - 293T cells EC50,[20],447 nM
same,"GDF11 response, expressed as a percentage of GDF8 response",[9],2.51%
"Ab6 (Ab5 with germline framework residues), IgG4 (S228P), lambda (antibody, V domains shown, human IgG4/lambda framework with S228P; also called Ab6 germline) VH: QVQLVESGGGVVQPGRSLRLSCAASGFAFSSYGMHWVRQAPGKGLEWVAVISYDGNNKYYADSVKGRFTISRDNSKNTLYLQMNSLRAEDTAVYYCARDLLVRFLEWSHKYGMDVWGQGTTVTVSS VL: not shown",binding result,[13],no binding (tested: 50 µg/mL)
same,binding result,[14],no binding (tested: 50 µg/mL)
same,binding result,[15],no binding (tested: 50 µg/mL)
same,binding result,[16],no binding (tested: 50 µg/mL)
same,binding result,[17],no binding (tested: 50 µg/mL)
same,binding result,[18],no binding (tested: 50 µg/mL)
same,binding result,[19],no binding (tested: 50 µg/mL)
same,"GDF11 response, expressed as a percentage of GDF8 response",[9],2.07%
"Ab5 (affinity optimized variant of Ab1, parental frameworks) (antibody, IgG4, V domains shown, also called Ab5 parental; copies: 2 + 2) VH: QIQLVQSGGGVVQPGRSLRLSCAASGFAFSSYGMHWVRQAPGKGLEWVAVISYDGNNKYYADSVKGRFTISRDNSKNTLYLQMNSLRAEDTAVYYCARDLLVRFLEWSHKYGMDVWGQGTTVTVSS VL: QPVLTQPPSASGTPGQRVTISCSGSSSNIGGNTVHWYQQLPGTAPKLLIYSDDQRPSGVPDRFSGSKSGTSASLVISGLQSDDEADYYCAAWDESLNGVFGGGTKLTVLG",binding result,[21],binds
same,binding result,[22],binds
"Ab3 (affinity optimized variant of Ab1, parental frameworks) (antibody, IgG4, V domains shown, also called Ab3 parental; copies: 2 + 2) VH: QIQLVQSGGGVVQPGRSLRLSCAASGFAFSSYGMHWVRQAPGKGLEWVAVISYDGSIKYYADSVKGRFTISRDNSKNTLYLQMNSLRAEDTAVYYCARDLLVRFLEWSHKYGMDVWGQGTTVTVSS VL: QPVLTQPPSASGTPGQRVTISCSGSTSNIGSNTVHWYQQLPGTAPKLLIYSDDQRPSGVPDRFSGSKSGTSASLVISGLQSDDEADYYCAAWDESLNGVFGGGTKLTVLG",binding result,[21],binds
same,binding result,[22],binds
"Ab9 (antibody, V domains shown) VH: QVQLVQSGAEVKKPGSSVKVSCKASGGTFSSYAISWVRQAPGQGLEWMGGIIPIFGTANYAQKFQGRVTITADESTSTAYMELSSLRSEDTAVYYCANHGLMDDSSGYYLSNAFDIWGQGTMVTVSS VL: not shown",Murine proGDF8 IC50 (µM) Reporter assay,[2],19.9 µM
same,Human proGDF8 IC50 (µM) Reporter assay,[1],12.2 µM
